From publication PMC9396825 come the findings set out here.

Test [1] addresses Pan1-FKBP (yeast Eps15-like protein Pan1p with a C-terminal FKBP tag) (yeast) (UniProt P32521). In words: inducible peroxisome redistribution assay.
Test [2] has as its target T1, Pan1-FKBP (yeast Eps15-like protein Pan1p with a C-terminal FKBP tag) (yeast), P32521.
T1 chain: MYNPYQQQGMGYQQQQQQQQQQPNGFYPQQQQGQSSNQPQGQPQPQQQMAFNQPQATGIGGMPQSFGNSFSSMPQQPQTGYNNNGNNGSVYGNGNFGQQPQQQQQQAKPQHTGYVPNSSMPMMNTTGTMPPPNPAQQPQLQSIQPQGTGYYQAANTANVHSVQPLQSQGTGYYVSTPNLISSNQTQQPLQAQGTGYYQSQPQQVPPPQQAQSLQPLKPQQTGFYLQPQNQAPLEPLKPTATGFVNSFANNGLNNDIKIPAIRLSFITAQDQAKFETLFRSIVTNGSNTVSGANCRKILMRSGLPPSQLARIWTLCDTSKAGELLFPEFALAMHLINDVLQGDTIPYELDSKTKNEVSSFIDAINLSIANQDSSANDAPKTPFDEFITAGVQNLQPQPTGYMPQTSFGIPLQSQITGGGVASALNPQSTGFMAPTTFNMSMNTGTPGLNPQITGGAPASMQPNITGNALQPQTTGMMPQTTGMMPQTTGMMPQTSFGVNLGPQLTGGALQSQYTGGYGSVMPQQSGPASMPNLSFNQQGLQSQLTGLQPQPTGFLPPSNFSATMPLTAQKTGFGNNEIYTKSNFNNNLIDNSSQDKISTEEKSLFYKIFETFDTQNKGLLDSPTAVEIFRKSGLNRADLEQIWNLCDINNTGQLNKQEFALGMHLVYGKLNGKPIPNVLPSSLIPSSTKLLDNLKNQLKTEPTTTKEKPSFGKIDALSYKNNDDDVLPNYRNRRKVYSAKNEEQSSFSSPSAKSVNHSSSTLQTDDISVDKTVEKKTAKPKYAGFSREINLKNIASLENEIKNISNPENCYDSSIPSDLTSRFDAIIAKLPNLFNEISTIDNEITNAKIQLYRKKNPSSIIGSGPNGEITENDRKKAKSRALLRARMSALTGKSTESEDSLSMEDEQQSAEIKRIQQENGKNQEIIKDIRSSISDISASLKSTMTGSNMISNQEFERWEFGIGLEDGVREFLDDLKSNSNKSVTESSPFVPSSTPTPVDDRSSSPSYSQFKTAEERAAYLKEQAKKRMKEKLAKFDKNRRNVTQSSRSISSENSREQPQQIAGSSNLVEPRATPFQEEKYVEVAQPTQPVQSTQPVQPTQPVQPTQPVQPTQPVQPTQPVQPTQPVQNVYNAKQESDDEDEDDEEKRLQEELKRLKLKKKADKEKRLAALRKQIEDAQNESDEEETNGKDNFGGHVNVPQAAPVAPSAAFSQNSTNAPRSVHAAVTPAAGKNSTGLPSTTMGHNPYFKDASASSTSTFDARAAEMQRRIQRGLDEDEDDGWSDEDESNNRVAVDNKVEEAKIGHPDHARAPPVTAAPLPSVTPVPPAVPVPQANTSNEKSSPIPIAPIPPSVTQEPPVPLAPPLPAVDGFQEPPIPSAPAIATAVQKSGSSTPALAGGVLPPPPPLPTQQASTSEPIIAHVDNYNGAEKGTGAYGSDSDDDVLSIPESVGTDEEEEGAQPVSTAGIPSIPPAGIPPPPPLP
In words: inducible peroxisome redistribution assay. The note with it: remark: other sources report otherwise.

In the case of “Ent1-GFP (from UniProt Q12518 1-454) (natural protein)”, the percent localized to the peroxisome in test [1] came out at 64%.
Consider “GFP-fused Sla2p (from UniProt P33338 1-968) (natural protein)”, for which the percent localized to the peroxisome in test [1] came to 72%.
The same measure, in the same setting: the figure for “GFP-tagged Ent2p (from UniProt Q05785 1-613) (natural protein)” is 66.7%.

B1: Sla1-GFP, P32790 1-1244 (natural protein)
chain: MTVFLGIYRAVYAYEPQTPEELAIQEDDLLYLLQKSDIDDWWTVKKRVIGSDSEEPVGLVPSTYIEEAPVLKKVRAIYDYEQVQNADEELTFHENDVFDVFDDKDADWLLVKSTVSNEFGFIPGNYVEPENGSTSKQEQAPAAAEAPAATPAAAPASAAVLPTNFLPPPQHNDRARMMQSKEDQAPDEDEEGPPPAMPARPTATTETTDATAAAVRSRTRLSYSDNDNDDEEDDYYYNSNSNNVGNHEYNTEYHSWNVTEIEGRKKKKAKLSIGNNKINFIPQKGTPHEWSIDKLVSYDNEKKHMFLEFVDPYRSLELHTGNTTTCEEIMNIIGEYKGASRDPGLREVEMASKSKKRGIVQYDFMAESQDELTIKSGDKVYILDDKKSKDWWMCQLVDSGKSGLVPAQFIEPVRDKKHTESTASGIIKSIKKNFTKSPSRSRSRSRSKSNANASWKDDELQNDVVGSAAGKRSRKSSLSSHKKNSSATKDFPNPKKSRLWVDRSGTFKVDAEFIGCAKGKIHLHKANGVKIAVAADKLSNEDLAYVEKITGFSLEKFKANDGSSSRGTDSRDSERERRRRLKEQEEKERDRRLKERELYELKKARELLDEERSRLQEKELPPIKPPRPTSTTSVPNTTSVPPAESSNNNNSSNKYDWFEFFLNCGVDVSNCQRYTINFDREQLTEDMMPDINNSMLRTLGLREGDIVRVMKHLDKKFGRENIASIPTNATGNMFSQPDGSLNVATSPETSLPQQLLPQTTSPAQTAPSTSAETDDAWTVKPASKSESNLLSKKSEFTGSMQDLLDLQPLEPKKAAASTPEPNLKDLEPVKTGGTTVPAAPVSSAPVSSAPAPLDPFKTGGNNILPLSTGFVMMPMITGGDMLPMQRTGGFVVPQTTFGMQSQVTGGILPVQKTGNGLIPISNTGGAMMPQTTFGAAATVLPLQKTGGGLIPIATTGGAQFPQTSFNVQGQQQLPTGSILPVQKTANGLISANTGVSMPTVQRTGGTMIPQTSFGVSQQLTGGAMMTQPQNTGSAMMPQTSFNAVPQITGGAMMPQTSFNALPQVTGGAMMPLQRTGGALNTFNTGGAMIPQTSFSSQAQNTGGFRPQSQFGLTLQKTGGIAPLNQNQFTGGAMNTLSTGGVLQQQQPQTMNTFNTGGVMQELQMMTTFNTGGAMQQPQMMNTFNTDGIMQQPQMMNTFNTGGAMQQPQQQALQNQPTGFGFGNGPQQSRQANIFNATASNPFGF
B1: the percent localized to the peroxisome in test [2] was determined as 63.3%.
